Experimental findings from publication PMC10707464 are described below.

For series [1], the system named is CCCCCCCCCC(=O)CC(=O)N[C@H]1CCOC1=O. Kind of series: purified protein. Particulars: 25.0 °C.
Another series relates to CCCCSC1CCC(=O)O1. Kind of series: purified protein. As to conditions: pH 8.0; 25.0 °C.

One may read the kcat/Km as the second-order rate constant that governs catalysis at low substrate concentration. Usually Km stands for the substrate concentration at which the rate is half of its maximum. “SacPox (Sulfolobus acidocaldarius DSM 639)”: the kcat/Km in series [1] stood at 1.62e+07 ± 2.2e+06 M⁻¹ s⁻¹; in the series with CCCCSC1CCC(=O)O1, 1.86e+06 ± 70000 M⁻¹ s⁻¹. Moreover, the Km in the series on CCCCSC1CCC(=O)O1 worked out at 0.024 ± 0.0005 mM.

For SsoPox (Saccharolobus solfataricus P2), in the series with CCCCSC1CCC(=O)O1, the Km was determined as 0.08 ± 0.003 mM and the kcat/Km is 360000 ± 10000 M⁻¹ s⁻¹.
